Laboratory results reported in patent publication US20230265151A1, “GIP/GLP1 CO-AGONIST COMPOUNDS” (priority 2020, published 2023).
Positions count from the first letter of the chain named. *1 amine or outer side, *2 acyl side, *3 side chain or, on linkers, in order; H or OH if unused. Where no end group is shown, it is not given here. Side-chain parts run from the residue outwards. [ ]: non-standard residue; d: D form. The star is where a group is joined. αMePhe(2-F) = C[C@](N)(Cc1ccccc1F)C(=O)O; γGlu = O=C(O)[C@H](CCC(=O)[*:2])N[*:1]; C14 diacid = O=C(O)CCCCCCCCCCCCC(=O)*; αMeY = C[C@](N)(Cc1ccc(O)cc1)C(=O)O; αMeF = C[C@](N)(Cc1ccccc1)C(=O)O; αMeL = CC(C)C[C@](C)(N)C(=O)O; Orn = NCCC[C@H](N)C(=O)O; AEEA = NCCOCCOCC(=O)O; Aib = CC(C)(N)C(=O)O

T1: human GIP receptor (human, UniProt P48546 22-466)
T1 sequence (looked up): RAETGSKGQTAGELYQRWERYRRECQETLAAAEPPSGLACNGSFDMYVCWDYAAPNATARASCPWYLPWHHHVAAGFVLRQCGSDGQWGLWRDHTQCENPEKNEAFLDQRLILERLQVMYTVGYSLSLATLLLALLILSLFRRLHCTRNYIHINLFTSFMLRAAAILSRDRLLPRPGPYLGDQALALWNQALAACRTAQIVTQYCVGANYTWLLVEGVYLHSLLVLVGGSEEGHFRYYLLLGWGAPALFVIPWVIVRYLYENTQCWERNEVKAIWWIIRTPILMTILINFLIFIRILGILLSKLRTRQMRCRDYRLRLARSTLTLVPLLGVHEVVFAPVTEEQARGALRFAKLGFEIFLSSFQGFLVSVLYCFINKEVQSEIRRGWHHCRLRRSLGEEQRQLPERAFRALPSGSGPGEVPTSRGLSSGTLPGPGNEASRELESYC

B1: Example 81 (peptide)
peptide: YXEGTXTSDXSIXLDXKAQXEFIKXLIEGGPSSGAPPPS
modifications: Aib2, αMeF(2F)6, 4Pal10, αMeL13, Orn16, Aib20, αMeY25, K17 and K24: K(AEEA2-CO-(CH2)12-CO2H), C-terminal NH2
B2: Example 82 (peptide)
peptide: B1 peptide with F22X
modifications: Aib2, αMeF(2F)6, 4Pal10, αMeL13, Orn16, Aib20, αMeF22, αMeY25, K17 and K24: K(AEEA2-(γ-Glu)-CO-(CH2)12-CO2H), C-terminal NH2
B3: Example 83 (peptide)
peptide: B1 peptide
modifications: Aib2, αMeF(2F)6, 4Pal10, αMeL13, Orn16, Aib20, αMeF25, K17 and K24: K(AEEA2-(γ-Glu)-CO-(CH2)12-CO2H), C-terminal NH2
B4: Example 5 (peptide)
peptide: B1 peptide with K24X, P31K
modifications: Aib2, αMeF(2F)6, 4Pal10, αMeL13, Orn16, Aib20, D-Glu24, αMeY25, K17 and K31: K(AEEA2-(γ-Glu)-CO-(CH2)10-CH3), C-terminal NH2
B5: Example 84 (peptide)
peptide: B1 peptide with F22X
modifications: Aib2, αMeF(2F)6, 4Pal10, αMeL13, Orn16, Aib20, αMeF22, αMeF25, K17 and K24: K(AEEA2-(γ-Glu)-CO-(CH2)12-CO2H), C-terminal NH2
B6: Example 85 (peptide)
peptide: B1 peptide with F22X, X25Y
modifications: Aib2, αMeF(2F)6, 4Pal10, αMeL13, Orn16, Aib20, αMeF22, K17 and K24: K(AEEA2-(γ-Glu)-CO-(CH2)12-CO2H), C-terminal NH2
B7: Example 86 (peptide)
peptide: B1 peptide with K17Q, K24X, E28K, P31K
modifications: Aib2, αMeF(2F)6, 4Pal10, αMeL13, Orn16, Aib20, D-Glu24, αMeY25, K28 and K31: K(AEEA2-(γ-Glu)-CO-(CH2)12-CO2H), C-terminal NH2
B8: Example 87 (peptide)
peptide: B1 peptide with K24X, P31K
modifications: Aib2, αMeF(2F)6, αMeF(2F)10, αMeL13, Orn16, Aib20, D-Glu24, αMeY25, K17 and K31: K(AEEA2-(γ-Glu)-CO-(CH2)12-CO2H), C-terminal NH2
B9: Example 88 (peptide)
peptide: B1 peptide with F22X, K24X, P31K
modifications: Aib2, αMeF(2F)6, 4Pal10, αMeL13, Orn16, Aib20, αMeF(2F)22, D-Glu24, αMeY25, K17 and K31: K(AEEA2-(γ-Glu)-CO-(CH2)12-CO2H), C-terminal NH2
B10: Example 89 (peptide)
peptide: B1 peptide with S11X, K24X, P31K
modifications: Aib2, αMeF(2F)6, 4Pal10, Aib11, αMeL13, Orn16, Aib20, D-Glu24, αMeY25, K17 and K31: K(AEEA2-(γ-Glu)-CO-(CH2)12-CO2H), C-terminal NH2
B11: Example 90 (peptide)
peptide: B1 peptide with X10V, K24X, P31K
modifications: Aib2, αMeF(2F)6, αMeL13, Orn16, Aib20, D-Glu24, αMeY25, K17 and K31: K(AEEA2-(γ-Glu)-CO-(CH2)12-CO2H), C-terminal NH2
B12: Example 92 (peptide)
peptide: B1 peptide with X10V, F22X, K24X, P31K
modifications: Aib2, αMeF(2F)6, αMeL13, Orn16, Aib20, αMeF22, D-Glu24, αMeY25, K17 and K31: K(AEEA2-(γ-Glu)-CO-(CH2)12-CO2H), C-terminal NH2
B13: Example 9 (peptide)
peptide: B1 peptide with K24X, P31K
modifications: Aib2, αMeF(2F)6, 4Pal10, αMeL13, Orn16, Aib20, D-Glu24, αMeY25, K17 and K31: K(AEEA2-CO-(CH2)12-CO2H), C-terminal NH2
B14: Example 94 (peptide)
peptide: B1 peptide with F22X, K24X, P31K
modifications: Aib2, αMeF(2F)6, Ac5c10, αMeL13, Orn16, Aib20, αMeF22, D-Glu24, αMeY25, K17 and K31: K(AEEA2-(γ-Glu)-CO-(CH2)12-CO2H), C-terminal NH2
B15: Example 95 (peptide)
peptide: B1 peptide with K24X, P31K
modifications: Aib2, αMeF(2F)6, Ac4c10, αMeL13, Orn16, Aib20, D-Glu24, αMeY25, K17 and K31: K(AEEA2-(γ-Glu)-CO-(CH2)12-CO2H), C-terminal NH2
B16: Example 96 (peptide)
peptide: B1 peptide with K24X, P31K
modifications: Aib2, αMeF(2F)6, 4CPhe10, αMeL13, Orn16, Aib20, D-Glu24, αMeY25, K17 and K31: K(AEEA2-(γ-Glu)-CO-(CH2)12-CO2H), C-terminal NH2
B17: Example 97 (peptide)
peptide: B1 peptide with K24X, P31K
modifications: Aib2, αMeF(2F)6, ChG10, αMeL13, Orn16, Aib20, D-Glu24, αMeY25, K17 and K31: K(AEEA2-(γ-Glu)-CO-(CH2)12-CO2H), C-terminal NH2
B18: Example 98 (peptide)
peptide: B1 peptide with K24X, P31K
modifications: Aib2, αMeF(2F)6, ChA10, αMeL13, Orn16, Aib20, D-Glu24, αMeY25, K17 and K31: K(AEEA2-(γ-Glu)-CO-(CH2)12-CO2H), C-terminal NH2
B19: Example 99 (peptide)
peptide: B1 peptide with F22X, K24X, P31K
modifications: Aib2, αMeF(2F)6, 4Pal10, αMeL13, Orn16, Aib20, 2Nal22, D-Glu24, αMeY25, K17 and K31: K(AEEA2-(γ-Glu)-CO-(CH2)12-CO2H), C-terminal NH2
B20: Example 101 (peptide)
peptide: B1 peptide with X16G, K24X, P31K
modifications: Aib2, αMeF(2F)6, 4Pal10, αMeL13, Aib20, D-Glu24, αMeY25, K17 and K31: K(AEEA2-(γ-Glu)-CO-(CH2)12-CO2H), C-terminal NH2
B21: Example 103 (peptide)
peptide: B1 peptide with E21G, K24X, P31K
modifications: Aib2, αMeF(2F)6, 4Pal10, αMeL13, Orn16, Aib20, D-Glu24, αMeY25, K17 and K31: K(AEEA2-(γ-Glu)-CO-(CH2)12-CO2H), C-terminal NH2
B22: Example 104 (peptide)
peptide: B1 peptide with K24G, P31K
modifications: Aib2, αMeF(2F)6, 4Pal10, αMeL13, Orn16, Aib20, αMeY25, K17 and K31: K(AEEA2-(γ-Glu)-CO-(CH2)12-CO2H), C-terminal NH2
B23: Example 105 (peptide)
peptide: B1 peptide with X10K, K17I, E21K, K24X
modifications: Aib2, αMeF(2F)6, αMeL13, Orn16, Aib20, D-Glu24, αMeY25, K10 and K21: K(AEEA2-(γ-Glu)-CO-(CH2)12-CO2H), C-terminal NH2
B24: Example 107 (peptide)
peptide: Y[Aib]EGT[αMePhe(2-F)]TSDK([AEEA-AEEA-γGlu-C14 diacid])SI[αMeL]LD[Orn]IAQ[Aib]EFI[dE][αMeY]LIK([AEEA-AEEA-γGlu-C14 diacid])GGPSSGAPPPS-NH2
modifications: N-terminus assumed
SMILES: CC[C@H](C)[C@H](NC(=O)[C@H](CCCN)NC(=O)[C@H](CC(=O)O)NC(=O)[C@H](CC(C)C)NC(=O)[C@](C)(CC(C)C)NC(=O)[C@@H](NC(=O)[C@H](CO)NC(=O)[C@H](CCCCNC(=O)COCCOCCNC(=O)COCCOCCNC(=O)CC[C@H](NC(=O)CCCCCCCCCCCCC(=O)O)C(=O)O)NC(=O)[C@H](CC(=O)O)NC(=O)[C@H](CO)NC(=O)[C@@H](NC(=O)[C@](C)(Cc1ccccc1F)NC(=O)[C@@H](NC(=O)CNC(=O)[C@H](CCC(=O)O)NC(=O)C(C)(C)NC(=O)[C@@H](N)Cc1ccc(O)cc1)[C@@H](C)O)[C@@H](C)O)[C@@H](C)CC)C(=O)N[C@@H](C)C(=O)N[C@@H](CCC(N)=O)C(=O)NC(C)(C)C(=O)N[C@@H](CCC(=O)O)C(=O)N[C@@H](Cc1ccccc1)C(=O)N[C@H](C(=O)N[C@H](CCC(=O)O)C(=O)N[C@@](C)(Cc1ccc(O)cc1)C(=O)N[C@@H](CC(C)C)C(=O)N[C@H](C(=O)N[C@@H](CCCCNC(=O)COCCOCCNC(=O)COCCOCCNC(=O)CC[C@H](NC(=O)CCCCCCCCCCCCC(=O)O)C(=O)O)C(=O)NCC(=O)NCC(=O)N1CCC[C@H]1C(=O)N[C@@H](CO)C(=O)N[C@@H](CO)C(=O)NCC(=O)N[C@@H](C)C(=O)N1CCC[C@H]1C(=O)N1CCC[C@H]1C(=O)N1CCC[C@H]1C(=O)N[C@@H](CO)C(N)=O)[C@@H](C)CC)[C@@H](C)CC

Experiments:
Test in all cases: cell-based or functional assay
human glucagon receptor = human glucagon receptor (human, UniProt P47871 26-477)
human GLP-1 receptor = human GLP-1 receptor (human, UniProt P43220 24-463)
human GIP receptor = molecular target: T1, human GIP receptor

Binder | EC50, cAMP (human glucagon receptor) [nM] | EC50, cAMP (human GLP-1 receptor) [nM] | EC50, cAMP (human GIP receptor) [nM] | Emax, cAMP (human GIP receptor) [%] | Emax, cAMP (human GLP-1 receptor) [%]
B1 | > 9950 | 0.176 | 0.0114 |  | 
B2 | > 9950 | 4.78 | 0.0206 | 81.4 | 
B3 | > 9950 | 0.451 | 0.0223 | 89.6 | 
B4 | > 9150 | 0.057 | 0.00585 |  | 
B5 | > 9950 | 5.27 | 0.0315 | 98.5 | 94
B6 | > 9950 | 7.69 | 0.0312 | 91.7 | 95.3
B7 | > 9950 | 0.359 | 0.0184 | 94.2 | 
B8 | > 9950 | 1.34 | 0.029 | 84.7 | 
B9 | > 9950 | 6.08 | 0.00884 | 85.1 | 97.1
B10 | > 9950 | 1.03 | 0.0301 | 88.9 | 
B11 | > 9950 | 0.221 | 0.0436 | 93 | 96.2
B12 | > 9950 | 0.942 | 0.0251 |  | 
Y[Aib]EGT[αMePhe(2-F)]TSDV[Aib]I[αMeL]LD[Orn]K([AEEA-AEEA-γGlu-C14 diacid])AQ[Aib]E[αMeF]I[dE][αMeY]LIEGGK([AEEA-AEEA-γGlu-C14 diacid])SSGAPPPS-NH2 [Example 93] | > 9950 | 0.575 | 0.0448 | 99.4 | 
B13 | > 9950 | 0.421 | 0.0102 |  | 
B14 | > 9950 | 2.1 | 0.0132 |  | 97.4
B15 | > 9950 | 0.181 | 0.0748 |  | 
B16 | > 9950 | 6.81 | 0.0484 |  | 
B17 | > 9950 | 0.683 | 0.0276 |  | 
B18 | > 9950 | 0.227 | 0.0148 |  | 
B19 | > 9950 | 0.349 | 0.0235 |  | 
B20 | > 9950 | 2.94 | 0.0297 | 92.1 | 
B21 | > 9950 | 2.1 | 0.0305 | 92.8 | 
B22 | > 9950 | 0.417 | 0.0361 | 94.9 | 
B23 | > 9950 | 0.52 | 0.0366 |  | 
Y[Aib]EGT[αMePhe(2-F)]TSDK([AEEA-AEEA-γGlu-C14 diacid])SI[αMeL]LD[Orn]IAQ[Aib]EFIK([AEEA-AEEA-γGlu-C14 diacid])[αMeY]LIEGGPSSGAPPPS-NH2 [Example 106] | > 9950 | 0.296 | 0.0385 | 98.7 | 
B24 | > 9950 | 1.01 | 0.0473 | 94.3 | 93.4
